# Columns and labels:
# Type in all cases: biochemical
# FMS (CSFR) = FMS (CSFR) (Homo sapiens, UniProt P07333); assay: TR-FRET kinase assay, FMS (CSFR); conditions: Kinase Concentration 0.25 nM; 50 nM ULight-labeled substrate, 200 micromolar ATP, 2 hours
# Procedure: (§1) TR-FRET kinase assays are performed under standardized conditions: various individual kinases are incubated with 50 nM of kinase substrate BRB1 labeled with the TR-FRET acceptor dye ULight (PerkinElmer) and 200 micromolar ATP in 10 μL of kinase assay buffer (50 mM HEPES pH7.5, 10 mM MgCl2, 3 mM MnCl2, 1 mM EGTA, 2 mM DTT and 0.01% Tween-20) for 2 hours at room temperature. Reactions are stopped with EDTA, and anti-phospho-tyrosine antibodies (clone PT66) labeled with the TR-FRET europium chelate donor dye are added to a final concentration of 2 nM in a final volume of 20 μL. The TR-FRET signal emitted at 665 nm is read one hour after the addition of antibodies using a TR-FRET plate reader such as the Envision® Multilabel Plate reader (PerkinElmer). The emitted signal at 665 nm is proportional to the extent of peptide phosphorylation, Control reactions indicative of background are performed excluding ATP from the reaction.
# (§2) Assay conditions are identical to those used described for FIG. 1.
# TNK1 = target: T1, TNK1 (Homo sapiens, UniProt Q13470); assay: TR-FRET kinase assay, TNK1; conditions: Kinase Concentration 1 nM; 50 nM ULight-labeled substrate, 200 micromolar ATP, 2 hours
# T1 sequence (Q13470 1-666): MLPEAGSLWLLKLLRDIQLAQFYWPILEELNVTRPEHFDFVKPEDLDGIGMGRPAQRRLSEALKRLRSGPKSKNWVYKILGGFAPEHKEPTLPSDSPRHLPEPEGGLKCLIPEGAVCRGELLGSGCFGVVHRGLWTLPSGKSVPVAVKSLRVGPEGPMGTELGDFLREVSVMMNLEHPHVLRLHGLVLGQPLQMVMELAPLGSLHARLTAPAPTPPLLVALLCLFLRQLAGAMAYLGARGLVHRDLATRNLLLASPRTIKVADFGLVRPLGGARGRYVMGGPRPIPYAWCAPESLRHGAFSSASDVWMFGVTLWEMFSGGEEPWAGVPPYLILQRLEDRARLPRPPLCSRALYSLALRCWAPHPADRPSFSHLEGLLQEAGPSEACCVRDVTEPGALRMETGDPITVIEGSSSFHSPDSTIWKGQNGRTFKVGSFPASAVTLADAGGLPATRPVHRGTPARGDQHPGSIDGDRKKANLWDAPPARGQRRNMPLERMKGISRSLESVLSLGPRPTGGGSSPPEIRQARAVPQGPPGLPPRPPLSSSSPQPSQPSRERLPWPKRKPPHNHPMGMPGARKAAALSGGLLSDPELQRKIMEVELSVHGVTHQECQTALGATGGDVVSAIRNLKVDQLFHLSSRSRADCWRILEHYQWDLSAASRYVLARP
# Procedure: as §1, §2
# HCK = HCK (Homo sapiens, UniProt P08631); assay: TR-FRET kinase assay, HCK; conditions: Kinase Concentration 0.25 nM; 50 nM ULight-labeled substrate, 200 micromolar ATP, 2 hours
# Procedure: as §1, §2
# ARG = ARG (Homo sapiens, UniProt P42684); assay: TR-FRET kinase assay, ARG; conditions: Kinase Concentration 0.5 nM; 50 nM ULight-labeled substrate, 200 micromolar ATP, 2 hours
# Procedure: as §1, §2
# EphB3 = target: T2, EphB3 (Homo sapiens, UniProt P54753); assay: TR-FRET kinase assay, EphB3; conditions: Kinase Concentration 0.1 nM; 50 nM ULight-labeled substrate, 200 micromolar ATP, 2 hours
# T2 sequence (P54753 34-998): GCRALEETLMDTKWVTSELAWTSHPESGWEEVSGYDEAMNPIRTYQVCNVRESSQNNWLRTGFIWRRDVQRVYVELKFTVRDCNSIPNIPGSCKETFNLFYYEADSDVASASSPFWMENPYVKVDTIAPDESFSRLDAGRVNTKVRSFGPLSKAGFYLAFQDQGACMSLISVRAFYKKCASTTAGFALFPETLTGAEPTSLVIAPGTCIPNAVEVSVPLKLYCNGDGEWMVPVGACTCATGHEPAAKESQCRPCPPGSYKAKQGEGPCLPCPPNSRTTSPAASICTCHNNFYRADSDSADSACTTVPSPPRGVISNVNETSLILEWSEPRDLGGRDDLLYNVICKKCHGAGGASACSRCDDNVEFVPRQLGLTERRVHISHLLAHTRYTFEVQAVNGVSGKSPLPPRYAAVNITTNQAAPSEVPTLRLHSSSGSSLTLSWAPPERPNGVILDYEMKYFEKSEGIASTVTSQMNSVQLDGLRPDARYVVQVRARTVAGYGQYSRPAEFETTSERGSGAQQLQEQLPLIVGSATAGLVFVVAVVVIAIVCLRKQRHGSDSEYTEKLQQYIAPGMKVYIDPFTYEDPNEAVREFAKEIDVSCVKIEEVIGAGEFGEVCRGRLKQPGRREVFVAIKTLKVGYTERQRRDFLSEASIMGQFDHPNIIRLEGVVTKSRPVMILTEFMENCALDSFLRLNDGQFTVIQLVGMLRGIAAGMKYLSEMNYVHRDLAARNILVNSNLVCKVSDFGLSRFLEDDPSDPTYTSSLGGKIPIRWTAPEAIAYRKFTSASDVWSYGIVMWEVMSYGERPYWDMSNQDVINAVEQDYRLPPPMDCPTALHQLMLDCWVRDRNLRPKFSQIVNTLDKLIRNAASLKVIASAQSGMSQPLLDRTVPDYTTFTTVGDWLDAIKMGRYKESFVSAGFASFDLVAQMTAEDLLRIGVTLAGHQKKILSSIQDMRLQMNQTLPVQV
# Procedure: as §1, §2
# LTK = LTK (Homo sapiens, UniProt P29376); assay: TR-FRET kinase assay, LTK; conditions: Kinase Concentration 1 nM; 50 nM ULight-labeled substrate, 200 micromolar ATP, 2 hours
# Procedure: as §1, §2
# ROR1 = ROR1 (Homo sapiens, UniProt Q01973); assay: TR-FRET kinase assay, ROR1; conditions: Kinase Concentration 20 nM; 50 nM ULight-labeled substrate, 200 micromolar ATP, 2 hours
# Procedure: as §1, §2
# IRR = IRR (Homo sapiens, UniProt P14616); assay: TR-FRET kinase assay, IRR; conditions: Kinase Concentration 0.5 nM; 50 nM ULight-labeled substrate, 200 micromolar ATP, 2 hours
# Procedure: as §1, §2
# ABL = ABL (Homo sapiens, UniProt P00519); assay: TR-FRET kinase assay, ABL; conditions: Kinase Concentration 0.25 nM; 50 nM ULight-labeled substrate, 200 micromolar ATP, 2 hours
# Procedure: as §1, §2
# LTK, sequence (P29376 17-864, species assumed): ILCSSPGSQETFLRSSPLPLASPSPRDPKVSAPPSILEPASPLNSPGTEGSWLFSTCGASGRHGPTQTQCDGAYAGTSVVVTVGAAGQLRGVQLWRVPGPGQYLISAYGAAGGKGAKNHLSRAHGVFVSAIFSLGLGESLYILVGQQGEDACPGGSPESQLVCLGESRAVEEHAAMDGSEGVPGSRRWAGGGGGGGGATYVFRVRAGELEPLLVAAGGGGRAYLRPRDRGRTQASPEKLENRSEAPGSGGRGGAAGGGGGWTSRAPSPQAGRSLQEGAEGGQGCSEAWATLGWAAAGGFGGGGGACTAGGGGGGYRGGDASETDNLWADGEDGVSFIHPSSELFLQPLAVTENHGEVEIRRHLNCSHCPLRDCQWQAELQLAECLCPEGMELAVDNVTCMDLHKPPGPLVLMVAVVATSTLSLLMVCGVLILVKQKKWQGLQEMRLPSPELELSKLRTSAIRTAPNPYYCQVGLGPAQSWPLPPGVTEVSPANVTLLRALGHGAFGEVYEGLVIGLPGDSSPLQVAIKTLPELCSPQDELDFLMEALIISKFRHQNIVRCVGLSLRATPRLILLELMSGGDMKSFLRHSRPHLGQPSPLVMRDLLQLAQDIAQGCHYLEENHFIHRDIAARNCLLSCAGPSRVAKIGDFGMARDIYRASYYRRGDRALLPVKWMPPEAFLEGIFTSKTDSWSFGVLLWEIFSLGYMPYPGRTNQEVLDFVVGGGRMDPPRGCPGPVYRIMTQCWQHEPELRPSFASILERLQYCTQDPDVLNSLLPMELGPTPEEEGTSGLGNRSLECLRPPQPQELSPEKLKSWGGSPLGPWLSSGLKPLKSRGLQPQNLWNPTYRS
# ABL, sequence (P00519 whole entry, species assumed): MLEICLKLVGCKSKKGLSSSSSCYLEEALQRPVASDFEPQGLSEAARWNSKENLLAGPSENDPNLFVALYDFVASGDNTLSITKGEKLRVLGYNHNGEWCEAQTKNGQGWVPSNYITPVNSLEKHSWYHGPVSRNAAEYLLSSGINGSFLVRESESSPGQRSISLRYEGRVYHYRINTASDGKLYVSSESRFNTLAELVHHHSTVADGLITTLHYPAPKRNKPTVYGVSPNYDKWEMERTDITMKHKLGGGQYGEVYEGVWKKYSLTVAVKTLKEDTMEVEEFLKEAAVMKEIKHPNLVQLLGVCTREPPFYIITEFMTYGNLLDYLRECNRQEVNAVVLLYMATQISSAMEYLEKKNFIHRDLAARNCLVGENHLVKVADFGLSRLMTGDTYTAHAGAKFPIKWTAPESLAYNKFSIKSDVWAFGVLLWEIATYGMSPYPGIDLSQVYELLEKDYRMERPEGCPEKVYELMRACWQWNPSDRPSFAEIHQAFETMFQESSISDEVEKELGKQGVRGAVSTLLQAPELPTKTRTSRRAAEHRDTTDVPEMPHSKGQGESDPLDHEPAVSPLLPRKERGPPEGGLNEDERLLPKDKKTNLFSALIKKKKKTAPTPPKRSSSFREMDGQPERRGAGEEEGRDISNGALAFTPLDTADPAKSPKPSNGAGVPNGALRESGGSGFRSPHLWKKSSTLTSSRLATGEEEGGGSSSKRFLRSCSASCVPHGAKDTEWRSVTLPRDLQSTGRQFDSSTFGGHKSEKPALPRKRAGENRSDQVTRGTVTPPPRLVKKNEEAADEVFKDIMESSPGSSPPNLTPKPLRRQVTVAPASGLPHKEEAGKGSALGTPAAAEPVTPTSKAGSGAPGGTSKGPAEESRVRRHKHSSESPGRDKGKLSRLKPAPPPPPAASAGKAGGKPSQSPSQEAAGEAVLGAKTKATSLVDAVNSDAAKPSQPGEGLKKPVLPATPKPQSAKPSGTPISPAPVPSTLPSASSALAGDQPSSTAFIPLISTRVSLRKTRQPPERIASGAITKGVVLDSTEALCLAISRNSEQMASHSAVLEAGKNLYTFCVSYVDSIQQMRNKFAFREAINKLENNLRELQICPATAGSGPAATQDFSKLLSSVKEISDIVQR
# IRR, sequence (P14616 27-1297, species assumed): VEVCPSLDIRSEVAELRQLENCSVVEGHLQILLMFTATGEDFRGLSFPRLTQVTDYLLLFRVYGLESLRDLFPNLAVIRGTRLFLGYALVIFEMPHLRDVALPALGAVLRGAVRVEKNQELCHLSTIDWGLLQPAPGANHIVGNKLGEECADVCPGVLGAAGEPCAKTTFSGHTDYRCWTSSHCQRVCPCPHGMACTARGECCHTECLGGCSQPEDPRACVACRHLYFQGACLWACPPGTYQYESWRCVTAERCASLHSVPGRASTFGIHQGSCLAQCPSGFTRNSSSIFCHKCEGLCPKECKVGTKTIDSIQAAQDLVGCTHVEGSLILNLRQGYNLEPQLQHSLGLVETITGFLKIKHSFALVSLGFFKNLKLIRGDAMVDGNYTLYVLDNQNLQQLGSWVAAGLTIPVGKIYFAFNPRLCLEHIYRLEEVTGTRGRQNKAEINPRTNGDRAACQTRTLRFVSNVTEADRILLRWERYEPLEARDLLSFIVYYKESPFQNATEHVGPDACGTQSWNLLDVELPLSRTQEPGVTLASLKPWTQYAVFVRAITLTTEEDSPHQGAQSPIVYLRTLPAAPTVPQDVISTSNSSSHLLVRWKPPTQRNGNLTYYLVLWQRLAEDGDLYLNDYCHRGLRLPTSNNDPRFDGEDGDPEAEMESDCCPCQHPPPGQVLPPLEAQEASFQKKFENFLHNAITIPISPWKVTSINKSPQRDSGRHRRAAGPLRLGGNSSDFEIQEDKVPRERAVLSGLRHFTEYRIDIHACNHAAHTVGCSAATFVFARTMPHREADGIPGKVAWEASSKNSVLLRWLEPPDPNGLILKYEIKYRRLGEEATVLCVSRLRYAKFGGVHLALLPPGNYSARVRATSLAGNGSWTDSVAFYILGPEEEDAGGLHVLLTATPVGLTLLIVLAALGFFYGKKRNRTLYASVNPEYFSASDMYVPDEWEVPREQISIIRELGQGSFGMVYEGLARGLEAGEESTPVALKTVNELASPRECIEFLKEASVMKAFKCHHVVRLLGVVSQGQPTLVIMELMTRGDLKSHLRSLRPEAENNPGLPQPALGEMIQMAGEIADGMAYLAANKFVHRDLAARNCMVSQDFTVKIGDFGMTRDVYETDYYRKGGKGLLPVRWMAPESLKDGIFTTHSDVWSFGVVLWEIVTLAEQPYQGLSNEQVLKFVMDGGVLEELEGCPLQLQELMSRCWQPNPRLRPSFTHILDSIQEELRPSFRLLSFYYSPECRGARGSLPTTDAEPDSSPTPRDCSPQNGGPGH
# ARG, sequence (P42684 whole entry): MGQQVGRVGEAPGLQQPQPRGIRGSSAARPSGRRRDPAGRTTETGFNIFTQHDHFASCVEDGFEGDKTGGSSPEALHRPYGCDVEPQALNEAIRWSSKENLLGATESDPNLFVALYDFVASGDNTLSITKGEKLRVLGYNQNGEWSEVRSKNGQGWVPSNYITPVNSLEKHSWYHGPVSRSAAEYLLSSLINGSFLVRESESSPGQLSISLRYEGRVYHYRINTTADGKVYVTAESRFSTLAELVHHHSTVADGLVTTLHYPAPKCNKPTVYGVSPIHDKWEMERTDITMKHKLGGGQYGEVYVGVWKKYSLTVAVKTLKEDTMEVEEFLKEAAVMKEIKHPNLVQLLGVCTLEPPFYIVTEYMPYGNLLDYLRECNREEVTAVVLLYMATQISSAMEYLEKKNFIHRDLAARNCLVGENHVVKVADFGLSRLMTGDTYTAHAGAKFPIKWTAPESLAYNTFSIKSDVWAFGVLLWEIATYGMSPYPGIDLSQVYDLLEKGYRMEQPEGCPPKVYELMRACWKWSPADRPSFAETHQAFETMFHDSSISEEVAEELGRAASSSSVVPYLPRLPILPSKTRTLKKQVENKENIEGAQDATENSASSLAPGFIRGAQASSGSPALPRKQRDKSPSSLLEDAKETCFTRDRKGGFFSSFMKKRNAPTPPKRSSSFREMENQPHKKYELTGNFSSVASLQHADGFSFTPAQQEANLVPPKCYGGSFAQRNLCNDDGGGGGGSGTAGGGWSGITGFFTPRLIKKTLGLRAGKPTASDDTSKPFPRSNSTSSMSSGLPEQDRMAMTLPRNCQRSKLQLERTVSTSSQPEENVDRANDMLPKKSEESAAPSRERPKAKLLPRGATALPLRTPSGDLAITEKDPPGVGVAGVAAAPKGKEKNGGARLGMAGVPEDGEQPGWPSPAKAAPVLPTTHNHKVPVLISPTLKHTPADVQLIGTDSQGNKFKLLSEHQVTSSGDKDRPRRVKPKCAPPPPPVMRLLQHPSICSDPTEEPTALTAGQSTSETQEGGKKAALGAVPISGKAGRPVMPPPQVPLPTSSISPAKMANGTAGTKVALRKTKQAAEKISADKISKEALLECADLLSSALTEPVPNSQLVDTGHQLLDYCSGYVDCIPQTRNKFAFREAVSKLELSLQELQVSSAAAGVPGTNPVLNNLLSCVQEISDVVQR
# HCK, sequence (P08631 whole entry, species assumed): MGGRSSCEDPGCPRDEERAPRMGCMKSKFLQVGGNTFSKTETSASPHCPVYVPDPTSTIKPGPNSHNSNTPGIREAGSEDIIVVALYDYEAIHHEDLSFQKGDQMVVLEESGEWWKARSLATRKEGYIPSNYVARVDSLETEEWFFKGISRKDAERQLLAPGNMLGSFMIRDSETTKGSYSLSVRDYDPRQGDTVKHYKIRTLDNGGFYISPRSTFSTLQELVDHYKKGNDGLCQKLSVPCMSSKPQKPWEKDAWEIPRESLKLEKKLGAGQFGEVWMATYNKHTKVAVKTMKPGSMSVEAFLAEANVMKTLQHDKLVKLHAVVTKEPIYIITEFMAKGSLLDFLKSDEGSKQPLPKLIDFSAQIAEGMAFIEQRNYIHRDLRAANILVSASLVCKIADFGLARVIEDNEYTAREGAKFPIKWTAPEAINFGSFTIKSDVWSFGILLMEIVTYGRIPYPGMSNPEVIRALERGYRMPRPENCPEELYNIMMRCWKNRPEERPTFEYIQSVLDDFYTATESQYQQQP
sequence,measurement,setting,value
C AYE AYE AYE K EYA EYA EYA K AYA EYE R (CAYEAYEAYEKEYAEYAEYAKAYAEYER; tyrosine kinase substrate peptide) [BRB1],Signal to Noise ratio with BRB1 Peptide,FMS (CSFR),3.0
same,Signal to Noise ratio with BRB1 Peptide,TNK1,6.8
same,Signal to Noise ratio with BRB1 Peptide,HCK,29.7
same,Signal to Noise ratio with BRB1 Peptide,ARG,10.6
same,Signal to Noise ratio with BRB1 Peptide,EphB3,24.7
same,Signal to Noise ratio with BRB1 Peptide,LTK,13.7
same,Signal to Noise ratio with BRB1 Peptide,ROR1,1.1
same,Signal to Noise ratio with BRB1 Peptide,IRR,19.2
same,Signal to Noise ratio with BRB1 Peptide,ABL,4.1

# From patent US8242083B2, “Kinase substrates” (PerkinElmer Health Sciences, Inc., priority 2008, dated 2012)
